In data set [1] the target is T1, C-MabR (Mycobacterium tuberculosis, UniProt P9WPH5 161-414).
T1 sequence: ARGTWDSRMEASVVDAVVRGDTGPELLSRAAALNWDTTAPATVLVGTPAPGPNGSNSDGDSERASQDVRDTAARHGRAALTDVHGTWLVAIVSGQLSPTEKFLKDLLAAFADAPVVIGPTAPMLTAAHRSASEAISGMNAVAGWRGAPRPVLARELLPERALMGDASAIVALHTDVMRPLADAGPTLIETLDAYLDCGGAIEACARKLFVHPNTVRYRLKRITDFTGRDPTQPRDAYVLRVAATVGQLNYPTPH
The experiment in a line: TSA (isothermal analysis); 46 C, apparent; […], room temperature 30 min; ITC: 50 mM Tris pH 7.5, 150 mM NaCl, 20 C. The note with it: protein: recombinant; tags: N-terminal 6xHis (pET28a); chain copies: 2; blunt.

Data set [2] concerns the target T2, N-MabR (Mycobacterium tuberculosis, UniProt P9WPH5 1-160).
T2 sequence: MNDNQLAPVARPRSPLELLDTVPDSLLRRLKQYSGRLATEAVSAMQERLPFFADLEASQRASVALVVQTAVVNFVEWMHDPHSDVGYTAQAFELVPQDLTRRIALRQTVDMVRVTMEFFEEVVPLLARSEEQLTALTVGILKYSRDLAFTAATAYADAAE
Kind of data set: EMSA; up to 20 uM protein; […], room temperature 30 min; ITC: 50 mM Tris pH 7.5, 150 mM NaCl, 20 C. The note with it: protein: recombinant; tags: N-terminal 6xHis (pET28a); chain copies: 2; blunt.

The target in data set [3] is T1, C-MabR. Kind of data set: ITC; 20 C; 50 mM Tris pH 7.5, 150 mM NaCl; […]; […], room temperature 30 min; ITC: 50 mM Tris pH 7.5, 150 mM NaCl, 20 C. As to conditions: protein: recombinant; tags: N-terminal 6xHis (pET28a); chain copies: 2; blunt. (In general: Isothermal titration calorimetry measures the heat released or taken up as one component is titrated into another.)

Data set [4] deals with the molecule itself. The experiment in a line: crystal structure.
Data set [5] concerns the molecule itself. Kind of data set: SEC. For orientation: In gel filtration, larger molecules generally elute earlier.

The record followed here is PMC11617747 (Heliyon, 2024).

B1: 23-bp FAS-II promoter dsDNA (dsDNA)
DNA 1: GTTTTGTTGGTTATATACAAAAA
DNA 2: TTTTTGTATATAACCAACAAAAC
Turning to B1, the Kd in data set [1] was around 1000 nM; in data set [3] it was 4300 nM. In addition, in data set [2], the binding result is on record as “no binding”.

B2: C-terminal domain of Mycobacterium tuberculosis MabR (Rv2242), residues 161-414 (domain or fragment)
chain: T1 sequence
As to B2, the binding result in data set [4] was “binds”.

B3: N-terminal domain of Mycobacterium tuberculosis MabR (Rv2242), residues 1-160 (domain or fragment)
chain: T2 sequence
As to B3, the stoichiometry N – broadly, the number of molecules, sites or subunits per partner or assembly – in data set [5] stood at 2.
